# Results from patent US9096835B2, “DNA polymerase” (Medical Research Council, priority 2003, dated 2015).
# B1: 4D11: round 4 clone selected for replication of 5NI; SEQ ID NO: 107 (protein)
# chain: MAMLPLFEPKGRVLLVDGHHLAYRTFFALKGLTTSRGEPVQAVYGFAKSLLKALKEDGYKAVFVVFDAKAPSFRHEAYEAYKAGRAPTPEDFPRQLALIKELVDLLGFTRLEVQGYEADDVLATLAKKAEKEGYEVRILTADRDLYQLVSDRVAVLHPEGHLITPEWLWEKYGLRPEQWVDFRALVGDPSDNLPGIKGIGEKTALKLLKEWGSLENLLKNLDRVKPENVREKIKAHLEDLRLSLELSRVRTDLPLEVDFAKRREPDRERLRAFLERLEFGSLLHEFGLLESPKALEEAPWPPPEGAFVGFVLSRKEPMWADLLALAAAKGGRVHRAPEPYKALRDLKEARGLLAKDLSVLALREGLGLPPGDDPMLLAYLLDPSNTTPEGVARRYGGEWTEEAGERAALSERLFANLWGRLEGEERLLWLYREVERPLSAVLAHMEATGVRLDVAYLRALSLEVAEEIARLEAEVFRLAGHPFNLNSRDQLERVLFDELGLPAIGKTEKTGKRSTSAAVLEALREAHPIVEKILQYRELTKLKSTYIDPLPDLIHPRTGRLHTRFNQTATATGRLSSSDPNLQNIPVRTPLGQRIRRAFIAEGGWLLVVLDYSQMELRVLAHLSGDENLIRVFQEGRDIHTETASWMFGVPREAVDPLMRRAAKTINFGVLYGMSAHRLSQELAIPYEEAQAFIERYFQSFPKVRAWIEKTLEEGRRRGYVETLFGRRRYVPDLEARVKSVREAAERMAFNMPVQGTAADLMKLAMVKLFPRLEETGARMLLQVHDELVLEAPKERAEAVARLAKEVMEGVYPLAVPLEVEVGIGEDWLSAKE
# modifications: Mutant Taq polymerase
# B2: 5D4: round 5 clone selected for replication of 5NI; SEQ ID NO: 109 (protein)
# chain: MAMLPLFEPKGRVLLVDGHHLAYRTFFALKGLTTSRGEPVQAVYGFAKSLLKALKEDGYKAIFVVFDAKAPSFRHEAHEAYKAGRAPSPEDFPRQLALIKELVDLLGFTRLEVQGYEADDVLATLAKKAEKEGYEVRILTADRDLYQLVSDRVAVLHPEGHLITPEWLWEKYGLRPEQWVDFRALVGDPSDNLPGVKGIGEKTALKLLKEWGSLENLLKNLDRLKPAIREKILAHMDDLKLSWDLAKVRTDLPLEVDFAKRRESDRERLRAFLERLEFGSLLHEFGLLESPKALEEAPWPPPVGAFVGFVLSRKEPMWADLLALAAARGGRVHRAPEPYKALRDLKEARGLLAKDLSVLALREGLGLPPGDDPMLLAYLLDPSNTTPEVVARRYGGEWTEEAGERAALSERLFANLWGRLEGEGRLLWLYRGVERPLSAVLAHMEATGVRLDVAYLRALSLEVAEEIARLEAEVFRLAGHPFNLNSRDQLERVLFDELGLPAIGKTEKTGKRSTSAAVLEALREAHPIVEKILQYRELTKLKSTYIDPLPDLIHPRTGRLHTRFNQTATATGRLSSSDPNLQNIPVRTPLGQRIRRAFIAEGGWLLVVLDYSQMELRVLAHLSGDENLIRVFQEGRDIHTETASWMFGVPREAVDPLMRRAAKTINFGVLYGMSAHRLSQELAIPYEEAQAFIERYFQSFPKVRAWIEKTLEEGRKRGYVETLFGRRRYVPDLNARVKSVREAAERMAFNMPVQGTAADLTKLAMVKLFPRLEETGARMLLQVHDELVLEAPKERAEAVARLAKEVMEGVYPLAVPLEVEVGIGEDWLSAKG
# modifications: Mutant Taq polymerase
# B3: Tth: Thermus thermophilus (Tth) wild-type polymerase (protein, UniProt P52028 1-834, looked up)
# DNA polymerase I, thermostable: MEAMLPLFEPKGRVLLVDGHHLAYRTFFALKGLTTSRGEPVQAVYGFAKSLLKALKEDGYKAVFVVFDAKAPSFRHEAYEAYKAGRAPTPEDFPRQLALIKELVDLLGFTRLEVPGYEADDVLATLAKKAEKEGYEVRILTADRDLYQLVSDRVAVLHPEGHLITPEWLWEKYGLRPEQWVDFRALVGDPSDNLPGVKGIGEKTALKLLKEWGSLENLLKNLDRVKPENVREKIKAHLEDLRLSLELSRVRTDLPLEVDLAQGREPDREGLRAFLERLEFGSLLHEFGLLEAPAPLEEAPWPPPEGAFVGFVLSRPEPMWAELKALAACRDGRVHRAADPLAGLKDLKEVRGLLAKDLAVLASREGLDLVPGDDPMLLAYLLDPSNTTPEGVARRYGGEWTEDAAHRALLSERLHRNLLKRLEGEEKLLWLYHEVEKPLSRVLAHMEATGVRLDVAYLQALSLELAEEIRRLEEEVFRLAGHPFNLNSRDQLERVLFDELRLPALGKTQKTGKRSTSAAVLEALREAHPIVEKILQHRELTKLKNTYVDPLPSLVHPRTGRLHTRFNQTATATGRLSSSDPNLQNIPVRTPLGQRIRRAFVAEAGWALVALDYSQIELRVLAHLSGDENLIRVFQEGKDIHTQTASWMFGVPPEAVDPLMRRAAKTVNFGVLYGMSAHRLSQELAIPYEEAVAFIERYFQSFPKVRAWIEKTLEEGRKRGYVETLFGRRRYVPDLNARVKSVREAAERMAFNMPVQGTAADLMKLAMVKLFPRLREMGARMLLQVHDELLLEAPQARAEEVAALAKEAMEKAYPLAVPLEVEVGMGEDWLSAKG
# Tests used:
# [1] = tested on: 215 bp fragment from the cytochrome B gene in the mitochondrial genome; assay: Ancient DNA PCR, cave hyena samples; assay type: biochemical, cave hyena (Crocuta spelaea); settings: on two separate occasions
# From the text: FIG. 12. Several samples of cave hyena (Crocuta spelaea) were extracted and analysed. The seven samples were from Teufelslucke cave (Austria, 40 000 years old), Aufhausener Höhle (Germany, no date determined (2 samples)); Irpfelhöhle (Germany, no date determined); Kiskevelyi ([…] 48 500 years old); Miskolc III (Hungary, 44 000 years old); Mala ladnica (Slovakia, no date determined). The target was a 215 bp fragment from the cytochrome B gene in the mitochondrial genome. The amplification was only successful in the presence of sspDNA.
# Several samples of cave hyena (Crocuta spelaea) were extracted and analysed. […] These samples were chosen to test the efficacy of the expanded substrate spectrum polymerases.
# Therefore, M1 was blended with a commercial preparation of Taq (SuperTaq (HT biotechnology Ltd)) in a ratio of 1 unit to 10 and compared to Taq in the absence of M1. It was hoped that if M1 could bypass the blocking lesions, then the wild type Taq would amplify the resulting translesion synthesis product.
# [2] = tested on: template containing 5-Nitroindole; assay: Primer extension opposite 5-nitroindole; assay type: biochemical; settings: for ability to replicate 5NI: clones from five rounds of selection
# Description: 50 pmol of ^32P-labelled primer and 100 pmol of template in a volume of 44 μl were annealed in 1× Taq buffer. 4D11 or 5D4 polymerase as cell lysate (6 μl) was added and reactions were incubated at 50° C. for 15 minutes followed by addition of one dNTP (1 μl in total volume of 50 μl, final dNTP concentration 40 μM). 8 μl samples were taken at various time points and added to 8 μl stop solution (7M urea, 100 mM EDTA containing xylene cyanol F). At the end of the time course the remaining 3 dNTPs were added (final concentration each dNTP 40 μM) and reactions incubated at 50° C. for a further 30 minutes. Reaction samples were electrophoretically separated using 20% polyacrylamide gels at 25 W for 4 hours. The resultant gels were dried and scanned using a phosphorimager (Molecular Dynamics). Data was processed using the program ImageQuant (Molecular Dynamics).
# [3] = Incorporation and extension of 5-nitroindole-5′-triphosphate; assay type: biochemical; settings: 50° C., identical conditions as 4D11 and 5D4; data not shown
# Description: 50 pmol of ^32P-labelled primer and 100 pmol of template in a volume of 44 μl were annealed in 1× Taq buffer. 4D11 or 5D4 polymerase as cell lysate (6 μl) was added and reactions were incubated at 50° C. for 15 minutes followed by addition of d5NITP (1 μl in total volume of 50 µL final dNTP concentration 40 μM). 8 μl samples were taken at various time points and added to 8 μl stop solution (7M urea, 100 mM EDTA containing xylene cyanol F). At the end of the time course the 4 native dNTPs were added (final concentration each dNTP 40 μM) and reactions incubated at 50° C. for a further 30 minutes.
molecule,measurement,setting,value
SuperTaq: commercial preparation of Taq (HT biotechnology Ltd),amplification of previously un-amplifiable cave hyena DNA,[1],did not
B1,ability to replicate 5NI,[2],greatly increased ability to replicate 5NI
B2,ability to replicate 5NI,[2],greatly increased ability to replicate 5NI
B3,extension opposite 5-nitroindole,"[2]; 50° C., cell lysate, identical conditions as 4D11 and 5D4, data not shown",almost undetectable extension reactions
same,incorporation and extension of d5NITP,[3],almost undetectable extension reactions
